According to US20110207796:

Experiments:
[1] = system: human alpha-synuclein (wild-type, recombinant)
beta synuclein = beta synuclein (UniProt Q16143)
[2] = system: alpha-synuclein E46K familial mutant
[3] = system: alpha-synuclein A53T familial mutant
[4] = system: alpha-synuclein A30P familial mutant

Sequence of Polo like kinase 2 (PLK2) (chain): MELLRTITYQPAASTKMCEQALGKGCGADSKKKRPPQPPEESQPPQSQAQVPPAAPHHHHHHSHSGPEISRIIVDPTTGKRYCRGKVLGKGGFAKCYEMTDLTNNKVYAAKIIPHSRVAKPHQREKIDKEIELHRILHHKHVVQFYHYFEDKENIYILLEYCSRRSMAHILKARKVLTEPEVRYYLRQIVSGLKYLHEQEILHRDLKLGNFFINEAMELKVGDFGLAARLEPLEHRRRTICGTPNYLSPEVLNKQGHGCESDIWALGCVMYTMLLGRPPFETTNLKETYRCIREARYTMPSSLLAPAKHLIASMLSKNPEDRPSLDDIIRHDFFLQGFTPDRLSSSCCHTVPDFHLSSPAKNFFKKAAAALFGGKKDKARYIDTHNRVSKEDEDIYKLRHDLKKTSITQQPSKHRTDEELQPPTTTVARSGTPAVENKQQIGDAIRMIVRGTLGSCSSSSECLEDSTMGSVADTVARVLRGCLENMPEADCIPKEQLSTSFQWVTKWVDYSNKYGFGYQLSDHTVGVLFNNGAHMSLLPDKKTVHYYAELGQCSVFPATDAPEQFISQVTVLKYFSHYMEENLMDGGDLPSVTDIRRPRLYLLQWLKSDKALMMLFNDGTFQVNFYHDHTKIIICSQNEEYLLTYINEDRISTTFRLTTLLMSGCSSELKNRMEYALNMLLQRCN
Sequence of beta synuclein (Q16143 whole entry): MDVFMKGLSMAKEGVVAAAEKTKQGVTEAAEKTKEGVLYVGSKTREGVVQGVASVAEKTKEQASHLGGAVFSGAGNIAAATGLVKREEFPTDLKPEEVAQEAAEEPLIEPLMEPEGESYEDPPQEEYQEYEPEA

## casein kinase 2 (CKII)
[1]
  S129 phosphorylation in vitro, kinases normalized by activity units: CKII was not detectable
  S129 phosphorylation, immunoblot (mAb 11A5), kinase:rAS 1:200 molar: Prominent signals came from GRK6, CKI, CKII and PLK2

## Polo like kinase 2 (PLK2)
Beta synuclein
  in vitro phosphorylation, autoradiography: minimally against beta synuclein
[2]
  in vitro phosphorylation, autoradiography: the mutant alpha-synucleins were phosphorylated more at a given concentration (especially at lower concentrations) than WT
[1]
  Fold Change in Percent Synuclein Phosphorylation (ELISA, HEK-293 overexpression): 21.2 fold
  Proportion of total synuclein that is phoshorylated at ser-129 (ELISA, HEK-293 overexpression): 42.3%
  S129 phosphorylation, immunoblot (mAb 11A5), kinase:rAS 1:200 molar: Prominent signals came from GRK6, CKI, CKII and PLK2
  S129 phosphorylation, immunoblot (mAb 11A5), rank of signal: CKI>GRK6>PLK2>GRK4>GRK5>GRK2
  in vitro biochemical assay, phosphorylation of synuclein: PLK2 and PLK3 having extremely robust phosphorylation of synuclein
  in vitro kinase reaction, phosphorylation of alpha-synuclein at serine 129: capable of phosphorylating alpha-synuclein specifically at serine 129 and did not phosphorylate serine 87 in vitro
  in vitro phosphorylation, autoradiography: PLK2 was found to be more active against wild-type alpha synuclein than beta synuclein
  phospho ser-129 in vitro, kinases normalized for molarity: roughly equivalent levels of phospho ser-129 between CKI, GRK6 and PLK2
  phosphorylation of alpha-synuclein at S129 on co-expression in bacteria, mass spectrometry: more than 95% phosphorylated
[3]
  in vitro phosphorylation, autoradiography: the mutant alpha-synucleins were phosphorylated more at a given concentration (especially at lower concentrations) than WT
[4]
  in vitro phosphorylation, autoradiography: the mutant alpha-synucleins were phosphorylated more at a given concentration (especially at lower concentrations) than WT

## casein kinase I (CKI)
[1]
  S87 phosphorylation, immunoblot (pAb ELADW-110), kinase:rAS 1:200 molar: A signal was detected only with CKI phosphorylation
  S129 phosphorylation in vitro, kinases normalized by activity units: CKI gave a modest signal
  S129 phosphorylation, immunoblot (mAb 11A5), kinase:rAS 1:200 molar: Prominent signals came from GRK6, CKI, CKII and PLK2
  S129 phosphorylation, immunoblot (mAb 11A5), rank of signal: CKI>GRK6>PLK2>GRK4>GRK5>GRK2
  phospho ser-129 in vitro, kinases normalized for molarity: roughly equivalent levels of phospho ser-129 between CKI, GRK6 and PLK2
